Laboratory results taken from patent US20170327600, “RNA-PROTEIN COMPLEX, AND RNA AND PROTEIN DELIVERY SYSTEM USING THE SAME” (KYOTO UNIVERSITY, published 2017).

What was measured:
L7Ae [1] = target: T1, L7Ae (UniProt O29494 O29494:1-119); assay: EMSA; triangle also by HS-AFM; settings: tags: expressed from pET-28(+) (Novagen) in E. coli Rosetta; chain copies: 3 per LS-RNA; loop of double-stranded RNA with three K-turn motifs
Description: (§1) Subsequently, according to electrophoretic mobility shift assay (EMSA), the interaction of L7Ae with the LS-RNA was analyzed. After completion of electrophoresis using polyacrylamide gel, the polyacrylamide gel was stained with SYBR Green I and II (Lonza), and formation of an RNA-protein complex was then observed. As a result, it was confirmed that a triangular structure was formed by the interaction of the LS-RNA with L7Ae, as expected, in all of the LS-RNAs (FIG. 2).

L7Ae-Affibody (L7Ae-AFB) [2] = target: T2, L7Ae-Affibody (L7Ae-AFB) (UniProt O29494 O29494:1-119); assay: EMSA; settings: chain copies: 3 per LS-RNA; loop of double-stranded RNA with three K-turn motifs
T2 sequence (O29494 whole entry, one chain of several): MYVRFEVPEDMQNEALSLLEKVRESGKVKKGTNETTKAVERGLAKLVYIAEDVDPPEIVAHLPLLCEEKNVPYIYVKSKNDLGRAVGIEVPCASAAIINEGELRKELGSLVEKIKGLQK
Description: as §1
(§2) The function to recognize specific cancer cells was imparted to Tri-RNP. Specifically, a protein (L7Ae-AFB), in which the N-terminus of an affibody_{ZHER2:342} peptide (SEQ ID NOS: 25 and 26) was fused with the C-terminus of L7Ae via […] (SEQ ID NOS: 27 and 28), was prepared by transfecting a plasmid into Escherichia coli in accordance with Ohno, H., et al., as described above. This L7Ae-AFB was added to LS-RNA to construct RNP (Tri-AFB, FIG. 9A). When LS-26 was used as RNA (Tri-26-AFB), a triangular structure was found by HS-AFM, and it was also confirmed that a substance assumed as AFB was added to each vertex (FIG. 9B). Moreover, according to EMSA, it was confirmed that L7Ae-AFB binds to a K-turn motif, as with Tri-26 (FIG. 10).

L7Ae-Affibody (L7Ae-AFB) [3] = target: T2, L7Ae-Affibody (L7Ae-AFB); assay: EMSA; triangle also by HS-AFM; settings: chain copies: 3 per LS-RNA; loop of double-stranded RNA with three K-turn motifs
Description: as §1, §2

L7Ae [4] = target: T1, L7Ae; assay: HS-AFM, triangular structure with L7Ae; settings: tags: expressed from pET-28(+) (Novagen) in E. coli Rosetta; chain copies: 3 per LS-RNA; loop with three K-turn motifs and a GFP siRNA duplex at each side
Description: Subsequently, the Tri-RNPs were observed by […]. […] The cantilever was set at a resonance frequency of 400-1000 kHz and at a spring constant of 0.1-0.2 N/m. A probe was deposited on the cantilever by electron beam. The mica surface was coated with 0.1% APTES, and thereafter, a 50 nM sample that had been dissolved in an RNP-binding solvent and an AFM observation solvent (20 mM Tris-HCl (pH7.6) and 10 mM MgCl2) was left at rest on the mica. The image was analyzed using software such as Image J and WSxM.
Specifically, five RNAs were hybridized with S-26, L-26-1 (SEQ ID NO: 29), L-26-2 (SEQ ID NO: 30), L-26-3 (SEQ ID NO: 31), and antisense-GFP (SEQ ID NO: 32) in the same manner as described above, such that L-26 had siRNA for GFP at the three sides thereof, thereby producing LS-26-siGFP. Subsequently, LS-26-siGFP was mixed with L7Ae to produce Tri-26-siGFP having a triangular structure, and the structure of the Tri-26-siGFP was then confirmed by HS-AFM. […] As given above, a triangular structure (Tri-26-siGFP) having a structure containing three double strands having siRNA function could be constructed.

L7Ae [5] = target: T1, L7Ae; assay: EMSA; 150 KCl (unit printed ml), 1.5 mM MgCl2, 20 mM HEPES-KOH pH 7.5; triangle also by HS-AFM; settings: tags: expressed from pET-28(+) (Novagen) in E. coli Rosetta; chain copies: 3 per LS-RNA; loop of double-stranded RNA with three K-turn motifs
Description: as §1

T1 sequence (O29494 whole entry, one chain of several): as above

B1: LS-48 (dsRNA)
RNA 1: GGACGAGCUGUACACCAUGGUGACCGCCGCCGGGCGUGAUGAGCUCCAAGGACCCCAACGAGAAGCGCGAUCACAUGAUCUACUUCGGCUUCGGCGUGAUGAGCCCUGUGCUGCUGCCCGAUAACCACUACCUGCCAUCACCCACGGCCCUGGGCGUGAUGAGCAUUCCACCCAGAGCGC
RNA 2: GGUGUACAGCUCGUCCGCGCUCUGGGUGGAAUGCUCUGACCCAGGGCCGUGGGUGAUGGCAGGUAGUGGUUAUCGGGCAGCAGCACAGGGCUCUGACCGAAGCCGAAGUAGAUCAUGUGAUCGCGCUUCUCGUUGGGGUCCUUGGAGCUCUGACCCGGCGGCGGUCACCAU
- binding result (L7Ae [1]): binds
- binding result (L7Ae-Affibody (L7Ae-AFB) [2]): binds

B2: LS-26 (dsRNA)
RNA 1: GGCGCAAAGGCCUGUAAUCGGCGUGAUGAGCCAUGCGAGGAGGAAAUGAAGUCCAAUGGCGUGAUGAGCCUCUACGGGAAGAGCAUGCCCAUCCGGGCGUGAUGAGCGUAGCAA
RNA 2: GGCCUUUGCGCCUUGCUACGCUCUGACCCGGAUGGGCAUGCUCUUCCCGUAGAGGCUCUGACCAUUGGACUUCAUUUCCUCCUCGCAUGGCUCUGACCGAUUACA
- binding result (L7Ae [1]): binds
- binding result (L7Ae-Affibody (L7Ae-AFB) [3]): binds

B3: LS-26-siGFP (dsRNA)
RNA 1: GGCAUCAAGGUGAACUUCAAGAUCCGCAAAGGCCUGUAAUCGGCGUGAUGAGCCAUGCGAGGA
RNA 2: GGCAUCAAGGUGAACUUCAAGAUCCGGAAAUGAAGUCCAAUGGCGUGAUGAGCCUCUACGGGA
RNA 3: GGCAUCAAGGUGAACUUCAAGAUCCAGAGCAUGCCCAUCCGGGCGUGAUGAGCGUAGCAAGGC
RNA 4: GGCCUUUGCGCCUUGCUACGCUCUGACCCGGAUGGGCAUGCUCUUCCCGUAGAGGCUCUGACCAUUGGACUUCAUUUCCUCCUCGCAUGGCUCUGACCGAUUACA
RNA 5: GGAUCUUGAAGUUCACCUUGAUGCCAG
- binding result (L7Ae [4]): binds

B4: LS-15 (dsRNA)
RNA 1: GGUGAAGGGCGUGAUGAGCGAGAAGUCCGGCUUCGGCGUGAUGAGCCCUGUGCCGGCCCUGGGCGUGAUGAGCAUUCCACC
RNA 2: GGACUUCUCGCUCUGACCCUUCACCGGUGGAAUGCUCUGACCCAGGGCCGGCACAGGGCUCUGACCGAAGCC
- binding result (L7Ae [5]): binds
- binding result (L7Ae-Affibody (L7Ae-AFB) [2]): binds
